From the supplement of paper PMC10126150
± gives the standard deviation of the averaged measurements.

Tested on: ATP
Assay: switch fluorescence ratio, 500 uM ATP over buffer (Cy3 cluster intensity, sum of 5 cycles each) (fold (ratio)); higher = stronger signal-on switching upon ATP binding; sequences stand for … in TCGTCGGCAGCGTCAGATGTGTATAAGAGACAGTTTTTTTTTTTTTTTTTTTTTTTTT…TC
Conditions: aptamer strand: ATP DNA aptamer (quencher-CACCTGGGGGAGTATTGCGGAGGAAGG + anchor), 100 nM annealed; ATP concentration: 500 uM
Outline: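 The fluorescence ratio divides summed target-cycle Cy3 intensity by summed buffer-cycle Cy3 intensity for each cluster and is averaged per switch-domain sequence. Cy3-labelled switching-strand clusters on a modified Illumina MiSeq flow-cell were annealed to 100 nM quencher-labelled ATP aptamer, then imaged in selection buffer and again after 15 min with 500 uM ATP at 22 °C. Five such cycles were run, with NaOH stripping and re-annealing between them, and clusters outside 100-1000 RFU were excluded.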
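Also: ATP exposure 15 min at 22 °C before imaging.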

Sequence | switch fluorescence ratio
ATGTGTGTTG | 1.04 ± 0.046
ATGTTAAAGG | 0.998 ± 0.016
ATGTTAACGG | 1.01 ± 0.012
ATGTTACATT | 1.01 ± 0.038
ATGTTAGATT | 0.996 ± 0.029
ATGTTAGCGT | 0.9941 ± 0.0048
ATGTTAGTAC | 1.03 ± 0.058
ATGTTATGG | 1.01 ± 0.011
ATGTTATTA | 0.975 ± 0.021
ATGTTATTGT | 0.98 ± 0.049
ATGTTATTTA | 1.01 ± 0.025
ATGTTCAGTT | 0.974 ± 0.012
ATGTTGAACT | 0.99 ± 0.002
ATGTTGAGCC | 0.9874 ± 0.0022
ATGTTGGGTT | 0.982 ± 0.031
ATGTTGTCTG | 1 ± 0.035
ATGTTGTGGG | 1 ± 0.013
ATGTTGTTAC | 1.01 ± 0.025
ATGTTGTTGA | 0.998 ± 0.024
ATGTTTAAGC | 1.05 ± 0.048
ATGTTTCACA | 0.951 ± 0.011
ATGTTTCTAT | 0.982 ± 0.027
ATGTTTGATT | 0.999 ± 0.047
ATGTTTGGCC | 1.04 ± 0.041
ATGTTTGTAG | 0.979 ± 0.045

Sequence | switch fluorescence ratio
ATGTTTTGAA | 0.9789 ± 0.005
ATGTTTTGGG | 1.01 ± 0.024
ATGTTTTTGG | 1.1 ± 0.22
ATTAAAGGGT | 1.005 ± 0.0084
ATTAAATAGA | 1.02 ± 0.014
ATTAAATTGT | 0.9919 ± 0.0062
ATTAACCATT | 1.01 ± 0.014
ATTAACTAAA | 1.02 ± 0.017
ATTAACTTTA | 1.01 ± 0.035
ATTAAGCACC | 1.3 ± 0.079
ATTAAGGCAA | 1.1 ± 0.014
ATTAAGGCTA | 0.983 ± 0.036
ATTAAGGGGC | 1.02 ± 0.017
ATTAAGTTGA | 0.987 ± 0.041
ATTAATGGCG | 0.9554 ± 0.009
ATTAATTCGT | 0.996 ± 0.071
ATTAATTTTC | 0.997 ± 0.039
ATTACAAATT | 1.03 ± 0.05
ATTACAGGGC | 1.03 ± 0.012
ATTACCCTCG | 1.02 ± 0.035
ATTACCTGTT | 1.03 ± 0.047
ATTACGTACT | 1.77 ± 0.11
ATTACTATGG | 1.02 ± 0.02
ATTACTGTGT | 0.99 ± 0.02
ATTACTTATC | 1.02 ± 0.018

Sequence | switch fluorescence ratio
ATTAGAGGGG | 0.9862 ± 0.0067
ATTAGAGGTT | 0.9898 ± 0.0094
ATTAGAGTGT | 0.965 ± 0.04
ATTAGGAAAT | 1.08 ± 0.1
ATTAGGAATG | 1.01 ± 0.027
ATTAGGAGAC | 1.005 ± 0.008
ATTAGGGACT | 0.992 ± 0.035
ATTAGGGGGC | 1.04 ± 0.061
ATTAGGGTGG | 0.992 ± 0.018
ATTAGGGTTT | 1.04 ± 0.061
ATTAGGTCTA | 1 ± 0.014
ATTAGTAGAT | 0.97 ± 0.013
ATTAGTGGGG | 0.978 ± 0.013
ATTAGTGGGT | 0.9826 ± 0.005
ATTAGTTGTA | 1 ± 0.025
ATTATAAGTG | 0.96 ± 0.016
ATTATACGGG | 1.052 ± 0.007
ATTATATGAC | 1.06 ± 0.05
ATTATATGCG | 0.992 ± 0.0024
ATTATATGGA | 0.956 ± 0.01
ATTATATTTA | 1.02 ± 0.028
ATTATCCCGG | 0.99 ± 0.041
ATTATGAATC | 1.02 ± 0.078
ATTATGGTTT | 1 ± 0.022
ATTATGTAGA | 0.9958 ± 0.0091

Sequence | switch fluorescence ratio
ATTATGTCAG | 0.991 ± 0.024
ATTATGTGGC | 0.9803 ± 0.0086
ATTATGTTTA | 1 ± 0.022
ATTATTACGG | 1 ± 0.022
ATTATTCACC | 1.01 ± 0.02
ATTATTCGGA | 1.008 ± 0.0027
ATTATTTTGG | 1.01 ± 0.018
ATTCAAAAAT | 1.04 ± 0.016
ATTCAATCCA | 0.989 ± 0.012
ATTCACATCG | 1.01 ± 0.06
ATTCATGGGA | 1.02 ± 0.031
ATTCATTCGG | 0.992 ± 0.026
ATTCATTTTC | 1.02 ± 0.015
ATTCCAAGGT | 0.997 ± 0.029
ATTCCAGAGG | 1.01 ± 0.02
ATTCCCAGGG | 2.067 ± 0.017
ATTCCGGGAG | 1.07 ± 0.064
ATTCGATATA | 1.02 ± 0.014
ATTCGATTTT | 0.999 ± 0.019
ATTCGCAGCA | 1.22 ± 0.056
ATTCGCGCTG | 0.994 ± 0.064
ATTCGGACGG | 1.026 ± 0.0055
ATTCGGCCTT | 1.01 ± 0.043
ATTCGGGTTA | 0.99 ± 0.013
ATTCGGTAA | 0.9962 ± 0.0072

Sequence | switch fluorescence ratio
ATTCGTATTT | 0.987 ± 0.029
ATTCGTGGG | 1.01 ± 0.017
ATTCGTGGGA | 0.9892 ± 0.0074
ATTCGTTAGA | 0.999 ± 0.011
ATTCTCTTGT | 0.996 ± 0.014
ATTCTGCTGG | 1.01 ± 0.013
ATTCTGTTTT | 0.986 ± 0.028
ATTCTTACCG | 1.09 ± 0.044
ATTCTTGAGA | 0.988 ± 0.034
ATTCTTGTTC | 0.981 ± 0.05
ATTGAAAAGG | 0.96 ± 0.028
ATTGAAGGAG | 0.994 ± 0.023
ATTGAAGGCG | 1 ± 0.038
ATTGAAGGGC | 0.9661 ± 0.0093
ATTGAATTCG | 1 ± 0.011
ATTGAATTTT | 0.9795 ± 0.0038
ATTGATGCTT | 0.979 ± 0.018
ATTGATGGCG | 0.982 ± 0.06
ATTGATGTCC | 0.976 ± 0.0098
ATTGATTCTT | 1.01 ± 0.051
ATTGATTGAT | 1.02 ± 0.024
ATTGATTTAG | 0.9756 ± 0.0095
ATTGCAATGG | 1.6 ± 0.034
ATTGCAGCTG | 0.9637 ± 0.0015
ATTGCAGGGA | 0.993 ± 0.042

Sequence | switch fluorescence ratio
ATTGCAGGTT | 0.965 ± 0.01
ATTGCAGTTG | 0.954 ± 0.013
ATTGCATGCA | 0.985 ± 0.026
ATTGCCCACC | 1.026 ± 0.0086
ATTGCCGGGA | 1.01 ± 0.0089
ATTGCGACAC | 1.23 ± 0.035
ATTGCGTGGT | 0.986 ± 0.024
ATTGCTAAGC | 1.039 ± 0.0054
ATTGCTACTT | 1.031 ± 0.0052
ATTGCTCTGT | 1.04 ± 0.036
ATTGCTTATT | 0.974 ± 0.018
ATTGGACAGT | 1 ± 0.075
ATTGGACTGG | 0.998 ± 0.057
ATTGGAGGTT | 0.995 ± 0.013
ATTGGCTAGT | 0.966 ± 0.02
ATTGGGAAAA | 1.03 ± 0.019
ATTGGGATGC | 1.04 ± 0.02
ATTGGGCGCG | 0.995 ± 0.018
ATTGGGGGAC | 0.98 ± 0.03
ATTGGGGGAT | 1.02 ± 0.078
ATTGGGGGCC | 0.967 ± 0.028
ATTGGGGGTG | 1.04 ± 0.012
ATTGGGGTGG | 0.935 ± 0.12
ATTGGGGTGT | 1.01 ± 0.022
ATTGGGTAGT | 0.9765 ± 0.0084

Sequence | switch fluorescence ratio
ATTGGGTGTT | 1.02 ± 0.029
ATTGGGTTCT | 0.991 ± 0.057
ATTGGTTCCA | 1.03 ± 0.041
ATTGGTTGTG | 0.988 ± 0.035
ATTGTAATAG | 1.04 ± 0.05
ATTGTAGAGT | 0.985 ± 0.026
ATTGTAGTCT | 1.04 ± 0.06
ATTGTATTTG | 1.01 ± 0.034
ATTGTCTGAG | 1.01 ± 0.011
ATTGTCTTTG | 0.982 ± 0.018
ATTGTGACGA | 1.03 ± 0.027
ATTGTGACTG | 0.975 ± 0.037
ATTGTGCTTG | 1 ± 0.027
ATTGTGGGCC | 0.975 ± 0.023
ATTGTGGTCA | 0.999 ± 0.017
ATTGTTACAG | 1.01 ± 0.016
ATTGTTATTA | 1.028 ± 0.0035
ATTGTTGGGG | 0.967 ± 0.025
ATTGTTGTTC | 1.06 ± 0.057
ATTGTTTACA | 0.969 ± 0.051
ATTGTTTGGG | 1.03 ± 0.019
ATTGTTTTGC | 1.009 ± 0.0025
ATTTAAATCT | 1.02 ± 0.023
ATTTAACGTC | 1.02 ± 0.08
ATTTAACTTA | 1.008 ± 0.0016

Sequence | switch fluorescence ratio
ATTTAAGAAG | 0.99 ± 0.032
ATTTAAGGGG | 0.9949 ± 0.0092
ATTTAAGGGT | 0.993 ± 0.032
ATTTAATGGG | 0.99 ± 0.035
ATTTACATCA | 1.02 ± 0.013
ATTTAGCCGC | 1.02 ± 0.017
ATTTAGCTTA | 1.0052 ± 0.00027
ATTTAGTACT | 1.04 ± 0.021
ATTTAGTCAG | 0.9737 ± 0.0053
ATTTAGTTCT | 0.981 ± 0.027
ATTTATGAGG | 1.01 ± 0.016
ATTTATGCAG | 0.9992 ± 0.0035
ATTTATGTGC | 1.01 ± 0.025
ATTTATTGGC | 1.02 ± 0.042
ATTTATTGGT | 1.007 ± 0.0062
ATTTCAAATA | 1.01 ± 0.043
ATTTCAAATT | 1.02 ± 0.028
ATTTCACGGC | 1.05 ± 0.024
ATTTCAGGTC | 1.02 ± 0.013
ATTTCCATGT | 0.978 ± 0.011
ATTTCCCTGT | 1.01 ± 0.044
ATTTCCGCAG | 3.82 ± 0.56
ATTTCGTAGG | 1.01 ± 0.024
ATTTCTGGGA | 0.982 ± 0.031
ATTTCTTGGG | 0.99703 ± 0.00034
